From paper PMC10592106 (Molecular cell, 2023) come the findings set out here.

This assay concerns the target T1, FLAG-FBXL12-FL (full length) (human, UniProt Q9NXK8 1-326).
T1 sequence (looked up): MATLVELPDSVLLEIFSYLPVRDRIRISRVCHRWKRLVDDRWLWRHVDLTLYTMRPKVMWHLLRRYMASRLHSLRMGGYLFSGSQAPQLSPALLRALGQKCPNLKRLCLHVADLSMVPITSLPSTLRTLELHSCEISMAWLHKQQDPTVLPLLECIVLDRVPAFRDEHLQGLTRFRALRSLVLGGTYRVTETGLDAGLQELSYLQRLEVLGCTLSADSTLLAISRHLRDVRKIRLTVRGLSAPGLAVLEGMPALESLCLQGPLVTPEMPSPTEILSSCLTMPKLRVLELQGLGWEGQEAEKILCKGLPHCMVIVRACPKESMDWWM
Kind of assay: pull-down.

Ends that are not written are not given here.

For the molecule MVSKRRLSKSEDKE (also: phosphorylated by CHK1, residues not given here) [FANCD2 N-terminal peptide WT, phosphorylated by CHK1], the binding result is listed as “binds”.
